Usually Kd stands for a measure of binding affinity in units of concentration.

Assay [1] deals with human HER2 on cells (human) (UniProt P04626).
For assay [2], the target named is HER2 extracellular domain (ECD) (UniProt P04626). Description: HER2 binding affinity of the HER2 arm; assay and form of HER2 not stated on the sheet or in the legend.
The target is the same in assay [3]. Description: HER2 KD relative to 4D5 (WT); assay not stated.

In the case of hu4D5.v5 (bispecific antibody), in assay [1], the EC50 of SKBR3 target cell killing worked out at 0.075 mg/L and the SKBR3 EC50 fold (relative to 4D5) is 9900 fold. In assay [2], this substance had a Kd of 0.0156 µM. The KD fold in assay [3] is 31.2 fold.

Values taken from patent US20200299408A1.
